The supplement of paper PMC10065799, “High-throughput profiling of sequence recognition by tyrosine kinases and SH2 domains using bacterial peptide display” (eLife, 2023)

biological target: Fes (UniProt P07332); assay: phosphorylation enrichment, bacterial display (enrichment ratio); higher = better substrate or ligand; peptides without Tyr show the background
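Wherever SH2 binding enrichment of the phosphorylated peptide, bacterial display is given: peptide library displayed on the E. coli surface as eCPX fusions, selected cells deep-sequenced, score is each peptide's frequency after selection divided by its frequency in the input.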
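Wherever phosphorylation enrichment, bacterial display is given: 11-residue human phosphosite peptides and single-mutation variants displayed on the E. coli surface, counted by deep sequencing, each peptide's frequency after selection divided by its frequency in the unselected input library; frequency after pTyr selection over input frequency; kinase dosed for 20-30% of maximal phosphorylation in three min.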

Sequence of Fes (P07332 whole entry, looked up, the tested form may be a part): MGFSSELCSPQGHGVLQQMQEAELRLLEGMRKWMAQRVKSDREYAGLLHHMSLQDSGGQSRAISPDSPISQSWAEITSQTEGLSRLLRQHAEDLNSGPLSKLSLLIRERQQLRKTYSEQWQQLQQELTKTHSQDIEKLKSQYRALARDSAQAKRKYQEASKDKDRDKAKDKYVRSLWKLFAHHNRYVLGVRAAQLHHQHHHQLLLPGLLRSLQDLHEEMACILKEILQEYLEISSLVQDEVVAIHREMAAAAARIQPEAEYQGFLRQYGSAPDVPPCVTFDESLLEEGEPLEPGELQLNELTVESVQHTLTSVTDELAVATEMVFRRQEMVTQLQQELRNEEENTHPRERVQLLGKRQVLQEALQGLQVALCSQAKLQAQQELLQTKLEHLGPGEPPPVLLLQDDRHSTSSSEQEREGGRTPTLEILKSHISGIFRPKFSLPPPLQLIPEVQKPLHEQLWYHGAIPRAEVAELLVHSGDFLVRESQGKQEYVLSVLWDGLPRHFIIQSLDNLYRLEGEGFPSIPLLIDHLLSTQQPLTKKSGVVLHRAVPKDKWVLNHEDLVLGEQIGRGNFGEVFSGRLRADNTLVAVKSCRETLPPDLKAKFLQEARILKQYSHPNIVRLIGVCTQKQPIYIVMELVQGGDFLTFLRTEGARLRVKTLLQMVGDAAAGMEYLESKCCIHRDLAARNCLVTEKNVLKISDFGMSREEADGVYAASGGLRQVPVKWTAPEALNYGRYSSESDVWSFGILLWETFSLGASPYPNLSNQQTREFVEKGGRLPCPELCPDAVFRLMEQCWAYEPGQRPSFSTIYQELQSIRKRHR

Sequence	phosphorylation enrichment
PPGRSYSPFDF [TNS1_Y793_YF]	0.81
CTTIHYNFICN [TP53_Y234_M237I_YF]	1.23
INSLKYAFNVS [EIF2B5_Y583_I587V_YF]	0.85
PFDAEYGGGGG [AKR1B10_Y316_N313D]	1.5
QHVPDYRQNVF [PCDHGA1_Y890_YF]	1.03
DFFDLYGGEKF [PTPN11_Y66_YF]	1
VGTKRYMALEV [ACVRL1_Y375_P378L]	0.75
NLFIEYPTGSG [IRF2BPL_Y423_K418N]	1.02
MPIPMYDGSQA [CARMIL1_Y637_A639G]	0.777
AIFWRYSKFFD [SH3PXD2B_Y45_R43W_YF]	1.35
RGERPYGGGGG [FUS_Y526_R522G]	0.643
LSVEIHDRREF [ITGB7_Y753_Y753H_YF]	1.59
NRDNTYNRVSE [FGA_Y127]	0.728
EGQKIYIDDNN [PIP4K2A_Y246]	1.15
GGKYSYLKVGH [GRM3_Y480]	0.616
PTATSYNPNLA [GABRA1_Y375_T376N]	1.34
RAILLYEFVGK [NATD1_Y45_V42I_YF]	7.5

Sequence	phosphorylation enrichment
DAASNYARGHF [TUBA3E_Y103_YF]	0.584
RKTAKYLLKGE [CDH5_Y82_N79T]	0.644
FVSLIYTNFEA [GSTP1_Y109_I105V_YF]	1.46
AKFPFYEKNKK [FOXL2_Y91]	0.806
FYRNVYHLASV [RBL1_Y796_K794N]	0.635
EWLRRHLENGK [HLA-A_Y195_Y195H]	0.811
SNMPSYSGHFT [GRIN2A_Y1224_T1223S]	0.599
AAETTYDKILK [GDNF_Y156]	1.09
STTSDYQWDVS [MTDH_Y364]	1.22
CTTIHYDYMCN [TP53_Y234_N235D]	0.994
LQTFRYHGHSM [PDHA1_Y289_YF]	1.06
TSGVVYKARNK [CDK2_Y19_Y15S]	0.661
ADKAAYLQSMN [MYH2_Y389_L393M]	0.761
SVTCTYSPALI [TP53_Y126_N131I]	1.8
VGTKRYMAPDV [ACVRL1_Y375_E379D]	0.491
YDCGMYSHLQG [LGR4_Y848]	1.21

biological target: SHP2-C SH2; assay: SH2 binding enrichment of the phosphorylated peptide, bacterial display (enrichment ratio); higher = better substrate or ligand; peptides without Tyr show the background

SH2 binding enrichment	Sequence
0.878	PPGRSYSPFDF [TNS1_Y793_YF]
2.05	CTTIHYNFICN [TP53_Y234_M237I_YF]
0.678	QHVPDYRQNVF [PCDHGA1_Y890_YF]
0.639	DFFDLYGGEKF [PTPN11_Y66_YF]
0.782	AIFWRYSKFFD [SH3PXD2B_Y45_R43W_YF]
0.696	EGQKIYIDDNN [PIP4K2A_Y246]
1.7	RAILLYEFVGK [NATD1_Y45_V42I_YF]
0.844	DAASNYARGHF [TUBA3E_Y103_YF]
0.699	FYRNVYHLASV [RBL1_Y796_K794N]
1.48	CTTIHYDYMCN [TP53_Y234_N235D]
1.03	LQTFRYHGHSM [PDHA1_Y289_YF]
0.525	ADKAAYLQSMN [MYH2_Y389_L393M]
0.663	SVTCTYSPALI [TP53_Y126_N131I]

Continued, sequence first:

Sequence	SH2 binding enrichment
INSLKYAFNVS [EIF2B5_Y583_I587V_YF]	0.352
PFDAEYGGGGG [AKR1B10_Y316_N313D]	0.798
VGTKRYMALEV [ACVRL1_Y375_P378L]	0.805
NLFIEYPTGSG [IRF2BPL_Y423_K418N]	0.551
MPIPMYDGSQA [CARMIL1_Y637_A639G]	0.53
RGERPYGGGGG [FUS_Y526_R522G]	0.673
LSVEIHDRREF [ITGB7_Y753_Y753H_YF]	0.563
NRDNTYNRVSE [FGA_Y127]	0.775
GGKYSYLKVGH [GRM3_Y480]	1.29
PTATSYNPNLA [GABRA1_Y375_T376N]	0.82
RKTAKYLLKGE [CDH5_Y82_N79T]	0.709
FVSLIYTNFEA [GSTP1_Y109_I105V_YF]	1.15
AKFPFYEKNKK [FOXL2_Y91]	1.38
EWLRRHLENGK [HLA-A_Y195_Y195H]	0.839
SNMPSYSGHFT [GRIN2A_Y1224_T1223S]	0.631
AAETTYDKILK [GDNF_Y156]	1.28
STTSDYQWDVS [MTDH_Y364]	0.612
TSGVVYKARNK [CDK2_Y19_Y15S]	0.866
VGTKRYMAPDV [ACVRL1_Y375_E379D]	0.522
YDCGMYSHLQG [LGR4_Y848]	0.811

biological target: Grb2 SH2 (UniProt P62993); assay: as above

SH2 binding enrichment	Sequence
1.16	PPGRSYSPFDF [TNS1_Y793_YF]
2	CTTIHYNFICN [TP53_Y234_M237I_YF]
0.888	QHVPDYRQNVF [PCDHGA1_Y890_YF]
0.904	DFFDLYGGEKF [PTPN11_Y66_YF]
1.05	AIFWRYSKFFD [SH3PXD2B_Y45_R43W_YF]
0.699	EGQKIYIDDNN [PIP4K2A_Y246]
1.58	RAILLYEFVGK [NATD1_Y45_V42I_YF]
0.688	DAASNYARGHF [TUBA3E_Y103_YF]
0.745	FYRNVYHLASV [RBL1_Y796_K794N]
0.983	CTTIHYDYMCN [TP53_Y234_N235D]
0.901	LQTFRYHGHSM [PDHA1_Y289_YF]
0.788	ADKAAYLQSMN [MYH2_Y389_L393M]
0.659	SVTCTYSPALI [TP53_Y126_N131I]

Second part, the sequence before the results:

Sequence	SH2 binding enrichment
INSLKYAFNVS [EIF2B5_Y583_I587V_YF]	0.705
PFDAEYGGGGG [AKR1B10_Y316_N313D]	0.747
VGTKRYMALEV [ACVRL1_Y375_P378L]	0.977
NLFIEYPTGSG [IRF2BPL_Y423_K418N]	0.681
MPIPMYDGSQA [CARMIL1_Y637_A639G]	0.746
RGERPYGGGGG [FUS_Y526_R522G]	1.24
LSVEIHDRREF [ITGB7_Y753_Y753H_YF]	0.678
NRDNTYNRVSE [FGA_Y127]	0.758
GGKYSYLKVGH [GRM3_Y480]	1.23
PTATSYNPNLA [GABRA1_Y375_T376N]	0.847
RKTAKYLLKGE [CDH5_Y82_N79T]	0.861
FVSLIYTNFEA [GSTP1_Y109_I105V_YF]	1.35
AKFPFYEKNKK [FOXL2_Y91]	1.31
EWLRRHLENGK [HLA-A_Y195_Y195H]	0.823
SNMPSYSGHFT [GRIN2A_Y1224_T1223S]	0.79
AAETTYDKILK [GDNF_Y156]	0.708
STTSDYQWDVS [MTDH_Y364]	0.921
TSGVVYKARNK [CDK2_Y19_Y15S]	0.742
VGTKRYMAPDV [ACVRL1_Y375_E379D]	0.573
YDCGMYSHLQG [LGR4_Y848]	1.03

biological target: c-Src SH2; assay: as above

SH2 binding enrichment	Sequence
0.512	PPGRSYSPFDF [TNS1_Y793_YF]
2.34	CTTIHYNFICN [TP53_Y234_M237I_YF]
0.508	QHVPDYRQNVF [PCDHGA1_Y890_YF]
0.56	DFFDLYGGEKF [PTPN11_Y66_YF]
0.699	AIFWRYSKFFD [SH3PXD2B_Y45_R43W_YF]
0.416	EGQKIYIDDNN [PIP4K2A_Y246]
1.31	RAILLYEFVGK [NATD1_Y45_V42I_YF]
0.458	DAASNYARGHF [TUBA3E_Y103_YF]
2	FYRNVYHLASV [RBL1_Y796_K794N]
8.99	CTTIHYDYMCN [TP53_Y234_N235D]
0.499	LQTFRYHGHSM [PDHA1_Y289_YF]
0.449	ADKAAYLQSMN [MYH2_Y389_L393M]
0.349	SVTCTYSPALI [TP53_Y126_N131I]

More lines, now with the values behind:

Sequence	SH2 binding enrichment
INSLKYAFNVS [EIF2B5_Y583_I587V_YF]	0.379
PFDAEYGGGGG [AKR1B10_Y316_N313D]	0.378
VGTKRYMALEV [ACVRL1_Y375_P378L]	0.813
NLFIEYPTGSG [IRF2BPL_Y423_K418N]	0.399
MPIPMYDGSQA [CARMIL1_Y637_A639G]	0.452
RGERPYGGGGG [FUS_Y526_R522G]	0.661
LSVEIHDRREF [ITGB7_Y753_Y753H_YF]	0.421
NRDNTYNRVSE [FGA_Y127]	1.59
GGKYSYLKVGH [GRM3_Y480]	1.79
PTATSYNPNLA [GABRA1_Y375_T376N]	0.617
RKTAKYLLKGE [CDH5_Y82_N79T]	0.461
FVSLIYTNFEA [GSTP1_Y109_I105V_YF]	0.8
AKFPFYEKNKK [FOXL2_Y91]	0.981
EWLRRHLENGK [HLA-A_Y195_Y195H]	0.6
SNMPSYSGHFT [GRIN2A_Y1224_T1223S]	0.548
AAETTYDKILK [GDNF_Y156]	3.75
STTSDYQWDVS [MTDH_Y364]	0.449
TSGVVYKARNK [CDK2_Y19_Y15S]	0.565
VGTKRYMAPDV [ACVRL1_Y375_E379D]	0.496
YDCGMYSHLQG [LGR4_Y848]	2.85
